Assays:
[1] = molecular target: T1, RPC2, subunit of human RNA polymerase III (human, UniProt Q9NW08 1-1133); test: cryo-EM structure
T1 sequence: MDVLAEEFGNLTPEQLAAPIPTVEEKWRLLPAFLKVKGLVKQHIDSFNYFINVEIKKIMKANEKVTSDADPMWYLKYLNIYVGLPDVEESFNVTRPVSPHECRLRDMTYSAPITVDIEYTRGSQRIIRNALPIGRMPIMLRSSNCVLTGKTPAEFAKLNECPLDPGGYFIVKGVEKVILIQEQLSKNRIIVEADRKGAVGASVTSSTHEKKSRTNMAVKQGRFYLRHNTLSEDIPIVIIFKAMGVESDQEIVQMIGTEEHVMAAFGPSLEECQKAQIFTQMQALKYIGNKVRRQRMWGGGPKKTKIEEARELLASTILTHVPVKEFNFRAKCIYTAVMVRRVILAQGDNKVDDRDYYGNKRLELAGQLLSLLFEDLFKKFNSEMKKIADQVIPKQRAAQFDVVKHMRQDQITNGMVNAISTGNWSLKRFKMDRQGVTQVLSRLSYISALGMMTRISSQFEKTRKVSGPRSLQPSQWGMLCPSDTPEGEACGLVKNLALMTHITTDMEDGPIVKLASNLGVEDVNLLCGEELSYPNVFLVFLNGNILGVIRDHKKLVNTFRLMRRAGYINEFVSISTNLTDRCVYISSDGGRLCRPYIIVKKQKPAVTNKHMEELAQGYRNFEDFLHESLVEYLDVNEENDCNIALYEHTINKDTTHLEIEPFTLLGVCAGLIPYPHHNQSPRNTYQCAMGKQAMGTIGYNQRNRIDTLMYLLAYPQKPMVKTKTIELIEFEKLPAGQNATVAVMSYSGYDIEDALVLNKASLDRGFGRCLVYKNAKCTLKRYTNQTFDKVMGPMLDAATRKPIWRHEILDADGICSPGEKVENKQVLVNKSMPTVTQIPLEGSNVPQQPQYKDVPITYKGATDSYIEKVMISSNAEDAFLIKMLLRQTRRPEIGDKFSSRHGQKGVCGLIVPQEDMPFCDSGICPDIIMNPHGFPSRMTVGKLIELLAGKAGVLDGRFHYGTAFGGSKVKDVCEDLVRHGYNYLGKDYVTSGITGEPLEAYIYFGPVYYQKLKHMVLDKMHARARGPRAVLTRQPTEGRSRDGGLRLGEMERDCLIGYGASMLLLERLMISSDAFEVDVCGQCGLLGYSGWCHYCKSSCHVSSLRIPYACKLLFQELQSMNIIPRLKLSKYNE

[2] = molecular target: RPABC5, subunit of human RNA polymerase III (human, UniProt P62875 1-67); test: cryo-EM structure

B1: RPC5, subunit of the human RNA polymerase III heterodimer (natural protein)
chain: MANEEDDPVVQEIDVYLAKSLAEKLYLFQYPVRPASMTYDDIPHLSAKIKPKQQKVELEMAIDTLNPNYCRSKGEQIALNVDGACADETSTYSSKLMDKQTFCSSQTTSNTSRYAAALYRQGELHLTPLHGILQLRPSFSYLDKADAKHREREAANEAGDSSQDEAEDDVKQITVRFSRPESEQARQRRVQSYEFLQKKHAEEPWVHLHYYGLRDSRSEHERQYLLCPGSSGVENTELVKSPSEYLMMLMPPSQEEEKDKPVAPSNVLSMAQLRTLPLADQIKILMKNVKVMPFANLMSLLGPSIDSVAVLRGIQKVAMLVQGNWVVKSDILYPKDSSSPHSGVPAEVLCRGRDFVMWKFTQSRWVVRKEVATVTKLCAEDVKDFLEHMAVVRINKGWEFILPYDGEFIKKHPDVVQRQHMLWTGIQAKLEKVYNLVKETMPKKPDAQSGPAGLVCGDQRIQVAKTKAQQNHALLERELQRRKEQLRVPAVPPGVRIKEEPVSEEGEEDEEQEAEEEPMDTSPSGLHSKLANGLPLGRAAGTDSFNGHPPQGCASTPVARELKAFVEATFQRQFVLTLSELKRLFNLHLASLPPGHTLFSGISDRMLQDTVLAAGCKQILVPFPPQTAASPDEQKVFALWESGDMSDQHRQVLLEIFSKNYRVRRNMIQSRLTQECGEDLSKQEVDKVLKDCCVSYGGMWYLKGTVQS
binding result [1]: binds | binding result [2]: binds

Reference: publication PMC7610652 (Nature structural & molecular biology, 2021)
